In US20140004122A1, “METHODS FOR TREATING OR PREVENTING CHOLESTEROL RELATED DISORDERS” (AMGEN INC., priority 2011, published 2014):
Marks after values point to notes of the source that are not given here.

Key:
cynomolgus monkeys = assay: Serum lipids after single subcutaneous dose in cynomolgus monkeys (Example 36); format: in vivo, cynomolgus monkey; details: 0.5 mg/kg single SC
Text: Briefly, naive male cynomolgus monkeys were acclimated to their environment for at least 2 weeks prior to experimentation. Animals were randomized into treatment groups based on a pre-screen of their serum TC, HDL-C, LDL-C, and triglyceride levels, and their body weight. After 1 week, animals were fasted overnight, and bled from the peripheral vasculature (cephalic or saphenous vein), for measurement of baseline serum lipid levels at a time point designated T=0. […] Fasting blood samples were then collected from animals at designated time points over a 45 day period.
At specified time points, blood was collected from animals under overnight fasting conditions from the peripheral vasculature (cephalic or saphenous vein). Whole blood was allowed to coagulate for 30 minutes at room temperature. Following centrifugation at 3,000 rpm for 20 minutes, serum was collected. Direct serum cholesterol analysis was performed using the Cobas Integra 400 analyzer (Roche Diagnostics Inc, Indianapolis, Ind.). Apolipoprotein B serum levels were determined at specified time points (day 0, 3, 6, 15, 24 and 33) by Anilytics, MD, with the following methodology. A 17 μL aliquot of the sample (no preparation) was used for analysis with a Hitachi 717 Analyzer using a 6 points standard curve. If the initial value of the sample was higher than the standard curve linearity, then the sample was diluted and repeated with the result multiplied by the appropriate dilution factor. The reagents for the assay (APO-B Reagent Kit #86071, Antibody Set #86060, Control Set #86103) were obtained from DiaSorin (Stillwater, Minn.).
A statistical model that considers baseline as a covariate and treatment group as a fixed effect was fit to the log transformed response at each time point for LDL-C, HDL-C, TC, and triglycerides. Tukey's multiple comparison correction was applied to adjust the pair wise comparisons at each time point. The statistical significance was evaluated at alpha=0.05 using adjusted p-values.

healthy subjects = assay: Phase 1 ascending single dose study (Example 20); format: in vivo, human
[1] = system: hypercholesterolemic subjects with a 10 year Framingham risk score of 10% or less; assay: 12 week monotherapy dose-ranging study (Example 24); format: in vivo, human; details: for mean percent reduction from baseline in LDL-C: preliminary; for Least squares mean percent change from baseline (%) in LDL-C / Treatment difference vs ezetimibe (%) in LDL-C / Treatment difference vs placebo (%) in LDL-C: week 12; for Treatment difference vs ezetimibe (%) in LDL-C / Treatment difference vs placebo (%) in LDL-C: P < 0.001
Method: Ezetimibe was not blinded. The end-of-study visit and the last estimation of lipids was at week 12 for subjects on Q4W IP schedule or on ezetimibe and week 14 for subjects on Q2W IP schedule.
Males and females, ≧18 to ≦75 years of age, were eligible for this study. Fasting LDL-C was ≧100 mg/dL (2.6 mmol/L) and <190 mg/dL (4.9 mmol/L) and fasting triglycerides ≦400 mg/dL (4.5 mmol/L) by central laboratory at screening.
The primary endpoint was the percent change from baseline in LDL-C at week 12. Secondary endpoints included percent changes in apolipoprotein B (ApoB), lipoprotein (a) (Lp(a)), and in the ratio of total cholesterol to high-density lipoprotein (HDL)-C. Tolerability and safety were also evaluated.

B1: 21B12: human anti-PCSK9 monoclonal antibody; light/heavy variable region SEQ ID NO 23/49 (antibody, listed as Homo sapiens, V domains shown)
VH: QVQLVQSGAEVKKPGASVKVSCKASGYTLTSYGISWVRQAPGQGLEWMGWVSFYNGNTNYAQKLQGRGTMTTDPSTSTAYMELRSLRSDDTAVYYCARGYGMDVWGQGTTVTVSS
VL: QSALTQPASVSGSPGQSITISCTGTSSDVGGYNSVSWYQQHPGKAPKLMIYEVSNRPSGVSNRFSGSKSGNTASLTISGLQAEDEADYYCNSYTSTSMVFGGGTKLTVL
Cynomolgus monkeys
  LDL-C returned to levels similar to control animals by day: ≤ 6 days
  TC returned to levels similar to control animals by day: ≤ 4 days
  maximal lowering of LDL-C as compared to anti-KLH IgG2 control antibody-treated monkeys: 64%
  maximal lowering of TC as compared to control animals: 20%
  time of maximal LDL-C lowering after injection: 3 days
  time of maximal TC lowering after injection: 3 days
Cynomolgus monkeys; 45 day study
  HDL-C levels: lowered HDL-C at a single time point, 18 days after injection
  triglycerides levels: No statistically significant changes
Cynomolgus monkeys; alpha=0.05
  HDL-C or triglyceride levels vs anti-KLH IgG2 control antibody-treated monkeys: statistically significant change in HDL-C at a single time point (day 18 following injection)
Cynomolgus monkeys; days 3, 6, 15, 24 and 33
  serum ApoB levels vs anti-KLH IgG2 control antibody-treated monkeys: statistically significant lower ApoB levels at day 3 only
Cynomolgus monkeys; printed as negative change
  maximal lowering of LDL-C (vs anti-KLH IgG2 control antibody at the same time point): −64%
Healthy subjects; 420 mg IV group
  AUC0-inf (median): 1550 µg·days/mL
  median maximum observed concentration (Cmax): 139 µg/mL
Healthy subjects; 18 of 42 subjects
  subjects with treatment-related adverse events: 43%
Healthy subjects; 21B12 at any dose, 29 of 42 subjects
  subjects with treatment-emergent adverse events: 69%
Healthy subjects; all 42 subjects who received 21B12
  anti-21B12 antibodies in serum: negative
Healthy subjects; in vivo
  effects on laboratory variables, ECGs, vital signs: no trends indicative of clinically important effects
Healthy subjects; single SC and IV doses up to 420 mg
  tolerability: well tolerated
Healthy subjects; single SC or IV dose
  serious adverse events: No adverse events were reported as serious
Healthy subjects; single dose
  LDL-C nadir observed within (after dosing): ≤ 2 weeks
Healthy subjects; single dose SC or IV
  elimination: nonlinear (concentration-dependent) elimination
Healthy subjects; single doses ≧70 mg SC
  suppression of PCSK9: Complete suppression of PCSK9
[1]; 70 mg (Q2W), end of the dosing interval
  mean percent reduction from baseline in LDL-C: 41.21%
[1]; 105 mg (Q2W), end of the dosing interval
  mean percent reduction from baseline in LDL-C: 45.44%
[1]; 140 mg (Q2W)
  mean percent reduction from baseline in LDL-C: 51.56%
[1]; 280 mg (Q4W), end of the dosing interval
  mean percent reduction from baseline in LDL-C: 37.53%
[1]; 350 mg, end of the dosing interval
  mean percent reduction from baseline in LDL-C: 42.16%
[1]; 420 mg
  mean percent reduction from baseline in LDL-C: 47.52%
[1]; final data
  LDL-C reductions from baseline greater than ezetimibe: 37%
  change in LDL-C from baseline to week 12 greater than with placebo: up to 72 mg/dL
  mean reduction from baseline for ApoB: up to 44%
  mean reduction from baseline for Lp(a): up to 29%
[1]; week 12, final data
  least-squares (LS) mean percent reduction from baseline in LDL-C: up to 51%
[1]; Q2W 70 mg SC (N = 45)
  Least squares mean percent change from baseline (%) in LDL-C: −40.98%
[1]; Q2W 70 mg
  Treatment difference vs ezetimibe (%) in LDL-C: −26.73* %
  Treatment difference vs placebo (%) in LDL-C: −37.27* %
[1]; Q2W 105 mg SC (N = 46)
  Least squares mean percent change from baseline (%) in LDL-C: −43.87%
[1]; Q2W 105 mg
  Treatment difference vs ezetimibe (%) in LDL-C: −29.62* %
  Treatment difference vs placebo (%) in LDL-C: −40.17* %
[1]; Q2W 140 mg SC (N = 45)
  Least squares mean percent change from baseline (%) in LDL-C: −50.93%
[1]; Q2W 140 mg
  Treatment difference vs ezetimibe (%) in LDL-C: −36.68* %
  Treatment difference vs placebo (%) in LDL-C: −47.23* %
[1]; Q4W 280 mg SC (N = 45)
  Least squares mean percent change from baseline (%) in LDL-C: −39.02%
[1]; Q4W 280 mg
  Treatment difference vs ezetimibe (%) in LDL-C: −25.17* %
  Treatment difference vs placebo (%) in LDL-C: −43.57* %
[1]; Q4W 350 mg SC (N = 45)
  Least squares mean percent change from baseline (%) in LDL-C: −43.20%
[1]; Q4W 350 mg
  Treatment difference vs ezetimibe (%) in LDL-C: −29.34* %
  Treatment difference vs placebo (%) in LDL-C: −47.74* %
[1]; Q4W 420 mg SC (N = 45)
  Least squares mean percent change from baseline (%) in LDL-C: −47.98%
[1]; Q4W 420 mg
  Treatment difference vs ezetimibe (%) in LDL-C: −34.14* %
  Treatment difference vs placebo (%) in LDL-C: −52.53* %
